These results are taken from the nanobody polyreactivity screen of Harvey et al. (2022).

The nature of this data set: yeast display, Sf9 membrane polyspecificity reagent, FACS + sequencing; frameworks hold sequencing errors. In a few lines: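 A nanobody's polyreactivity label depends on the gate it was sorted from. Yeast display cells were stained with 10% biotinylated, detergent-solubilized Sf9 membrane reagent for 1 hour at 4 °C, enriched on streptavidin microbeads and sorted by FACS. The low and high (top ~1%) gates were set on anti-HA fluorescence for expression and streptavidin fluorescence for reagent binding.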
As to “QVQLVESGGGLVQAGGSLRLSCAASGRTFNVYAMGWYRQAPGKERELVAVITNGGSTNYADSVKGRFTISRDNAKNTVYLQMNSLKPEDTAVYYCAADYYASLTREDRDDYWGQGTQVTVSS”, the “polyreactivity (PSR sort gate)” value is reported as “low polyreactivity”. In the case of “QVQLVESGGGLVQAGGSLRLSCAASGRTFNWYTMGWYRQAPGKERELVARINGRGGSTYYADSVKGRFTISRDNAKNTVYLQMNSLKPEDTAVYYCAADLHKLARYDYWGQGTQVTVSS”, the “polyreactivity (PSR sort gate)” value was “high polyreactivity”. The entry for “QVQLVESGGGLVQAGGSLRLSCAASGRTFPAYAMGWYRQAPGKERELVAAISYSGGRTRYADSVKGRFTISRDNAKNTVYLQMNSLKPEDTAVYDCNRVIPTQSLRDYYWGQGTQVTVSS” is “high polyreactivity”; for “QVQLVESGGGLVQAGGSLRLSCAASGRTFPAYAMGWYRQAPRKERELVARISYSGGNTYYADSVKGRFTISRDNAKNTVYLQMNSLKPEDTAVYYCAATRSHYPYRSGGDYWGQGTQVTVSS” it is “low polyreactivity”; for “QVQLVESGGGLVQAGGSLRLSCAASGRTFPFNAMGWYRQAPGKERELVAGISSGGRTNYADSVKGRFTISRDNAKNTVYLQMNSMQPEDTAVYYCAARYQPSRAARWTLDYWGQGTQVTVSS” it is “high polyreactivity”. Regarding “QVQLVESGGGLVQAGGSLRLSCAASGRTFPFYAMGWYRQAPGKEREFVAAITASGDSTYYADSVKGRFTISRDNAKNTVYLQMNSLKPEDTAVYYCAADLPVWYVTRYDYWGQGTQVTVSS”, the “polyreactivity (PSR sort gate)” value is on record as “low polyreactivity”. Take “QVQLVESGGGLVQAGGSLRLSCAASGRTFPGNAMGGYRQAPGKERELVAAISSRGGSTYYADSVKGRFTISRDNAKNTVNLQMKSLKPEDTAVYYCNAASNYRVRRTYHGDYWGLGTQVTVSS”: the “polyreactivity (PSR sort gate)” value is given as “high polyreactivity”. For “QVQLVESGGGLVQAGGSLRLSCAASGRTFPGNAMGWYRQAPGKEREFFAAITRSGGSTYADSVKGRFTISRDNAKNTVYLQMNSLKPEDTAVSYCAATFKWYSHTKPRFDYWGQGTKVTVSS”, the “polyreactivity (PSR sort gate)” value was “low polyreactivity”. As to “QVQLVESGGGLVQAGGSLRLSCAASGRTFPGNAMGWYRQAPGKERELVAAISKSSSRTYYADSVKGRFTISRDNAKNTVYLQMNSLKPEDTAVYYCAASSFNNGHRYDYWGQGTQVTVSS”, the “polyreactivity (PSR sort gate)” value is listed as “high polyreactivity”. Take “QVQLVESGGGLVQAGGSLRLSCAASGRTFPGNAMGWYRQAPGKERELVAAISSRGGSTYYADSVKGRFTISRDNAKNTVYLQMNSLKPEDTAVYYCARRYLPYGGYYYWGQGTQVTVSS”: the “polyreactivity (PSR sort gate)” value is given as “high polyreactivity”. On to “QVQLVESGGGLVQAGGSLRLSCAASGRTFPGNAMGWYRQAPGKERELVAAISWSGTRTYYADSVKGRFTISRDNAKNTVYLQINSLKPEDTAVYYCAARRYGVRSYGFDSWGQGTQVTVSS”, for which the “polyreactivity (PSR sort gate)” value is “high polyreactivity”. “QVQLVESGGGLVQAGGSLRLSCAASGRTFPGNAMGWYRQAPGKERELVATITWSSGRTHYADSVKGRFTISRDNAKNTVYLQMNSLKPEDTAVYYCAAKLIVAVGGFYYWGQGTQVTVSS”: the “polyreactivity (PSR sort gate)” value was “low polyreactivity”.

As for “QVQLVESGGGLVQAGGSLRLSCAASGRTFPGNDMGWYRQAPGKERELVAAISGNGGNTNYADSVKGRFTISRDNAKNTVYLQMNSLKPEDTAVYYCKADVPSDGYPGYPGGFESWGQGTQVTVSS”, the “polyreactivity (PSR sort gate)” value is “low polyreactivity”. The entry for “QVQLVESGGGLVQAGGSLRLSCAASGRTFPGYAMGWYREAPGKERELVAAISSSGGSTYYADSVKGRFTISRDNAKNTVYFQMNSLKPEVTAVYSCAVPYWYGRGHCYWGQGTQVTVSS” is “low polyreactivity”; for “QVQLVESGGGLVQAGGSLRLSCAASGRTFPGYAMGWYRQAPGKERELVAAISNSGGRTYYADSVKGRFTISRDYAKNTVYLQMNSLKPEDTAVYYCNATTDNGSNKRYYYWGQGTQVTVSS” it is “high polyreactivity”; for “QVQLVESGGGLVQAGGSLRLSCAASGRTFPGYAMGWYRQAPGKERELVAGISYRGGSTYYADSVKGRFTISRDNAKNTVYLQMYSLKPEDTAVYYCARDYSRHKGDYWGQGTQVTVSS” it is “low polyreactivity”. The entry for “QVQLVESGGGLVQAGGSLRLSCAASGRTFPINTMGWSRQAPGKEREFVAAITLGGRTYYADSVKGRFTISRDNAKNTVYLQMNSLKPEDTAVYYCAVAQPGYWLYRHFLPGSDYWGQGTQVTVSS” is “high polyreactivity”. As for “QVQLVESGGGLVQAGGSLRLSCAASGRTFPIYAMGWYRQAPGKERELVAAITGGGSTNYADSVKGRFTISRDNAKNTVYLQMNSLKPEDTAVYYCNARWFWYRPGGSRVDYWGQGTHVTVSS”, the entry is “high polyreactivity”. For the sequence “QVQLVESGGGLVQAGGSLRLSCAASGRTFPIYAMGWYRQAPGKERELVAAITYSGGSTYYADSVKGRFTISRDNAKNTVYLQMNSLKPEDTAVSYCAVDGTKPYWHQRYDYWGQGTLVTVSS”, the “polyreactivity (PSR sort gate)” value is given as “low polyreactivity”.

As to “QVQLVESGGGLVQAGGSLRLSCAASGRTFPIYAMGWYRQSPGKERELVAAITYSGGSTYYADSVKGRFTISRDNANNKVYLKMNSLKPEDTSVYYCAVDGTKPYWHQRYDYWGQGTQVTVSS”, the “polyreactivity (PSR sort gate)” value is given as “low polyreactivity”. In the case of “QVQLVESGGGLVQAGGSLRLSCAASGRTFPLNAMGWYRQAPGKERELVAAITWSGGRTYYADSVKGRFTISRDNAKNTVYLQMNSLKPEDTAVYYCNVDKVTSWYYYGYWGQGTQVTVSS”, the “polyreactivity (PSR sort gate)” value is given as “low polyreactivity”.

Regarding “QVQLVESGGGLVQAGGSLRLSCAASGRTFPLYAMGWYIQAPGKERELVAAITRSGGSTYYADSVKGRFTISRDNAKNTVYLQMNSLKPEDTAVYYCNARKSKDRPTGYAFNYWGQGTQVTVSS”, the “polyreactivity (PSR sort gate)” value was “high polyreactivity”.

As to “QVQLVESGGGLVQAGGSLRLSCAASGRTFPLYAMGWYRQAPGKERELVAAISYICGSTYYADSVKGLFTISRDNAKNTVYLQMNSLKPEDTAVYYCNADYNYAYDYWGQGTQVTVSS”, the “polyreactivity (PSR sort gate)” value is reported as “low polyreactivity”.

Consider “QVQLVESGGGLVQAGGSLRLSCAASGRTFPLYAMGWYRQAPGKERELVARINRGGSTYYADSVKGRFTISRDNAKNTVYLQMNSLKPEDTAVYYCNARHTWHQTYDYWGQGTQVTVSS”, for which the “polyreactivity (PSR sort gate)” value is recorded as “low polyreactivity”. As for “QVQLVESGGGLVQAGGSLRLSCAASGRTFPLYAMGWYRQAPGKERELVASITSDSSTYYADSVKGRFTISRDNAKNTVYLQMNSLKPEDTAVYYCAATTIPYPYTEFDYWGQGTQVTVSS”, the entry is “low polyreactivity”. The entry for “QVQLVESGGGLVQAGGSLRLSCAASGRTFPNYVIGWYRQATGKERELVAAINSGGRTNYADSVKGRFTISRDNAKNTVYLQMNRLKQEDTAFYFCTKRGHPARLGYYYWGQGTQVTVSS” is “low polyreactivity”. As for “QVQLVESGGGLVQAGGSLRLSCAASGRTFPPYGMGWNRQAPGKERELVADISKSSGSTNYADSVKARFTISRDKAKNTVYLQMNSVKPEDTAVYYCNVDLYRWSKLAGAYRMDYSGQGTQVTVSS”, the entry is “low polyreactivity”; as for “QVQLVESGGGLVQAGGSLRLSCAASGRTFPRNGMGWYRQAPGKERELVAAIRYSGGSTYYADSVKGRFTISRDNAKNTVYLQMNSLKPEDTAVYYWAAGRNRAGGFGSWGQGTQVTVSS”, “high polyreactivity”; as for “QVQLVESGGGLVQAGGSLRLSCAASGRTFPRNGMGWYRQAPGKERELVAAISWSGGRTYYADSVKGRFTISRDNAKYTVYLQMNSLKPEDTAVYYCNALYFRKGGYWGHGTQVTVSS”, “high polyreactivity”. “QVQLVESGGGLVQAGGSLRLSCAASGRTFPRYAMGWYRQAPGKERELVAAISVRAGITYYADSVKGRFTISRDNAKNTVYLQMKSLKPEDTADYYCAKDHWTSSYDEGDYWGQGTQVTVSS”: the “polyreactivity (PSR sort gate)” value was “low polyreactivity”. Turning to “QVQLVESGGGLVQAGGSLRLSCAASGRTFPRYAMGWYRQAPGKERELVAAITRRGSSTYYADSVKGRFTISRDNAKNTVYLQMNSLKPEDTAVYYCATSYHGYYYRYDYWGQGTQVTVSS”, the “polyreactivity (PSR sort gate)” value is given as “high polyreactivity”. The entry for “QVQLVESGGGLVQAGGSLRLSCAASGRTFPRYTMGWYRPAPGKERELVAASATGGSTYYADSVKGRFTISRDNAKNTVYLQMNSLKPEDTAVYYCAARPYSNRYVLGVYYWGQGTQVTVSS” is “high polyreactivity”; for “QVQLVESGGGLVQAGGSLRLSCAASGRTFPSYAMGWYRQAPGKERELVAAISSRGSRTYYADSVKGRFTISRDNAKNTVYLQMNSLKPEDTAVYYCAAKNLWTRKSRYDYWGQGTQVTVSS” it is “high polyreactivity”. The entry for “QVQLVESGGGLVQAGGSLRLSCAASGRTFPSYTMGWYRQAPGKERELVAAITWTGGSTYYADSVKGRFTISRDNAKNTVYLQINSLKREDTAVYYCADYEYWGQGTQVTVSS” is “low polyreactivity”; for “QVQLVESGGGLVQAGGSLRLSCAASGRTFPSYTMGWYRQAPGKERELVAAITWTGGSTYYADSVKGRFTISRDNAKNTVYLQMNSLKPEDTAVYYCADYDYWGLGTQVTVSS” it is “low polyreactivity”. In the case of “QVQLVESGGGLVQAGGSLRLSCAASGRTFPSYTMGWYSQAPGKERELVAAITWTGGSTYYADSVKGRFTISRDNAKNTVYLQMNSLKPEDTAVYYCADYDYWGQGTQVTVSS”, the “polyreactivity (PSR sort gate)” value was “low polyreactivity”. As for “QVQLVESGGGLVQAGGSLRLSCAASGRTFPTNAMGWYRQAPGKERELVARISTRGGSTYYADSVKGRFTISRDNAKNTVYLQMNSLKPEDTAVYYCAARYQGNYRTDKYDYWGQGTQVTVSS”, the entry is “high polyreactivity”. The entry for “QVQLVESGGGLVQAGGSLRLSCAASGRTFPTYAMGWDRQAPGKERELVAAITTSGGSTYADSVMGRFTISRDNAKNTVYLQMNSLKPEDTAVYYCATRSFYGGYYYSSGSEFDYWGQGTQVTVSS” is “low polyreactivity”; for “QVQLVESGGGLVQAGGSLRLSCAASGRTFPVYAMGWYRQAPGKERELVAGITGSGGRTYYADSVKGRFTISRDNAKNTVYLQMNSLKPEDTAVYYCAADRNLYWYQHEYCGQGTQVTVSS” it is “low polyreactivity”. As for “QVQLVESGGGLVQAGGSLRLSCAASGRTFPVYAMGWYRQAPGKERELVATIRRRDGSTYADSVKGRFTISRDNAKNTVYLQMNSLKPEDTAVYYCNAAYRQATPWYYAWYDYWGQVTQVTVSS”, the entry is “high polyreactivity”. On to “QVQLVESGGGLVQAGGSLRLSCAASGRTFPWYAMGWYRQAPGKERELVAAITISGGRTYYADSVKGRFTISRDNAKNTVYLQMNSLKPEDTAVYYCAAKTSFRYFNYAKPSYGYDYWGQGTQVTVSS”, for which the “polyreactivity (PSR sort gate)” value is given as “high polyreactivity”.
